Laboratory results: WO2022154037A1 (dated 2022)

What was measured:
[1] = biological target: T1, antigen peptide in which Ser510 is not phosphorylated (non-phosphorylated LRH1 peptide) (human); experiment: ELISA, concentration series of peptide, purified antibody
T1 construct: also called non-pS510-LRH1 peptide; peptide containing a non-phosphorylated product of serine at position 510
T1 peptide: RLPEIRAISMQAEE

[2] = biological target: T2, mutant LRH1 (LRH1S510E; constitutive phosphorylated product) (human, UniProt O00482 1-541); experiment: immunohistochemical staining of HEK293T cell block sections expressing LRH1S510E
T2 construct: It is a nuclear protein, not on the cell surface; also called HEK293T:LRH1S510E
T2 sequence (O00482 whole entry S510E): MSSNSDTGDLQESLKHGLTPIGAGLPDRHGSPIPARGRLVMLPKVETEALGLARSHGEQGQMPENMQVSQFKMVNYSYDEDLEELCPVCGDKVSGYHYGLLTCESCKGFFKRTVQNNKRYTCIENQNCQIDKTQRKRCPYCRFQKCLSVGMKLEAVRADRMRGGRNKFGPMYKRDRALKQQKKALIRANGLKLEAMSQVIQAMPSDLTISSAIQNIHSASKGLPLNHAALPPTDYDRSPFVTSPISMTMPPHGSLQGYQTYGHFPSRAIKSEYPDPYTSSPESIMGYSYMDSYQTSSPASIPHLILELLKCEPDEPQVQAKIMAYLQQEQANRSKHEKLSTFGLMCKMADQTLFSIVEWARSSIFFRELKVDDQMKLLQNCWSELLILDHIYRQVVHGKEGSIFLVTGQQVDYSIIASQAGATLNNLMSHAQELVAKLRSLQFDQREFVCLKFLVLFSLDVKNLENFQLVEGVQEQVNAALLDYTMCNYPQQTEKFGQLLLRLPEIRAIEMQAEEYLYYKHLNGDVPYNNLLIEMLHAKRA

B1: anti-pSer510-LRH1 monoclonal antibody clone 55 (FMU-P2-C2) (antibody, V domains shown)
VH: EVKLVESGGGLVQPGGSLRLSCAASGFTFADFYMSWIRQSPGKAPEWLSFIRNKAKSYTTEYNPSVKGRFTISRDDTQNVLYLQMNTLRAEDTAIYYCAKHERGGAGDYWGQGVMVTVSL
VL: DIQMTQSPASLSASPEEIVTITCQASQDIGNWLTWYQQKPGKSPQLLIYSATSLADGIPSRFSGSRSGTQYSLKISRLQVEDTGIYYCLQRYSNPLTFGSGTKLEIK
notes: Rat monoclonal antibody from a hybridoma (Wistar rat iliac lymph node cells fused with mouse myeloma SP2), detected with anti-rat IgG secondary antibodies; also called rat anti-pSer510-LRH1 monoclonal antibody clone 55; purified anti-pSer510-LRH1 monoclonal antibody
B1: no binding [1]; binds [2].
